Laboratory results: article PMC6351828
Where a chain is given by its changes, count along the chain named. In names and notes the source's numbering stands. Each block holds one binder with its values, some of them ahead of it.

Tests used:
[1] = target: Purified recombinant LC3 protein, Q9GZQ8; assay: ELISA; details: chain shown with the change, read off a plot
[2] = target: LC3‐GFP, Q9GZQ8; assay: co-immunoprecipitation (anti-GFP agarose) with quantified immunoblot; details: chain shown with the change; HeLa cells co-transfected with LC3-GFP and DISC1-Flag constructs; parent: 1.0; read off a plot

response ([1]; LC3B 10 nM, parent: est. 0.68): 0.1 OD (450 nm) | response ([1]; LC3B 50 nM, parent: est. 1.3): 0.12 OD (450 nm) | response ([1]; LC3B 100 nM, parent: est. 2.4): 0.12 OD (450 nm)
Binder: PGSHSAFTSSAAAARLSLGS [DISC1 FSFI peptide (a.a.200–219) F210A; S211A; F212A; I213A]

ratio to parent [2]: 0.21
B1: Disrupted‐in‐schizophrenia‐1 (DISC1)‐Flag, wild type, Q9NRI5 F210A; S211A; F212A; I213A (protein)
chain: MPGGGPQGAPAAAGGGGVSHRAGSRDCLPPAACFRRRRLARRPGYMRSSTGPGIGFLSPAVGTLFRFPGGVSGEESHHSESRARQCGLDSRGLLVRSPVSKSAAAPTVTSVRGTSAHFGIQLRGGTRLPDRLSWPCGPGSAGWQQEFAAMDSSETLDASWEAACSDGARRVRAAGSLPSAELSSNSCSPGCGPEVPPTPPGSHSAFTSSAAAARLSLGSAGERGEAEGCPPSREAESHCQSPQEMGAKAASLDGPHEDPRCLSRPFSLLATRVSADLAQAARNSSRPERDMHSLPDMDPGSSSSLDPSLAGCGGDGSSGSGDAHSWDTLLRKWEPVLRDCLLRNRRQMEVISLRLKLQKLQEDAVENDDYDKAETLQQRLEDLEQEKISLHFQLPSRQPALSSFLGHLAAQVQAALRRGATQQASGDDTHTPLRMEPRLLEPTAQDSLHVSITRRDWLLQEKQQLQKEIEALQARMFVLEAKDQQLRREIEEQEQQLQWQGCDLTPLVGQLSLGQLQEVSKALQDTLASAGQIPFHAEPPETIRSLQERIKSLNLSLKEITTKVCMSEKFCSTLRKKVNDIETQLPALLEAKMHAISGNHFWTAKDLTEEIRSLTSEREGLEGLLSKLLVLSSRNVKKLGSVKEDYNRLRREVEHQETAYETSVKENTMKYMETLKNKLCSCKCPLLGKVWEADLEACRLLIQSLQLQEARGSLSVEDERQMDDLEGAAPPIPPRLHSEDKRKTPLKVLEEWKTHLIPSLHCAGGEQKEESYILSAELGEKCEDIGKKLLYLEDQLHTAIHSHDEDLIQSLRRELQMVKETLQAMILQLQPAKEAGEREAAASCMTAGVHEAQA

ratio to parent [2]: 0.9
B2: Disrupted‐in‐schizophrenia‐1 (DISC1)‐Flag, wild type, Q9NRI5 W327A; D328A; T329A; L330A (protein)
chain: B1 chain with A210F, A211S, A212F, A213I, W326A, D327A, T328A, L329A

ratio to parent [2]: 1.1
B3: Disrupted‐in‐schizophrenia‐1 (DISC1)‐Flag, wild type, Q9NRI5 Y646A; N647A; R648A; L649A (protein)
chain: B1 chain with A210F, A211S, A212F, A213I, Y646A, N647A, R648A, L649A
